Measurements taken from paper PMC5018458 (Bioorganic & medicinal chemistry letters, 2016).

Experiments:
[1] = tested on: M21 human melanoma xenografts; assay: SPECT/CT imaging of M21 human melanoma-xenografted nude mouse; type: in vivo; conditions: about 7.4 MBq iv tail vein, 2 h post-injection
[2] = tested on: M21 human melanoma-xenografted nude mice; assay: Biodistribution in M21 human melanoma-xenografted nude mice; type: in vivo
M21 human melanoma cells = assay: Cellular efflux in M21 human melanoma cells; type: cell-based; conditions: M21 cells loaded 2 h at 37 °C, then 2 h of incubation in the culture medium
B16/F1 melanoma = conditions: 2 h post-injection; cited from earlier work

hydrazinonicotinamide-8-aminooctanoic acid-Nle-c[Asp-His-DPhe-Arg-Trp-Lys]-CONH2 (sidechain bridge or staple) [^99mTc(EDDA)-HYNIC-AocNle-CycMSHhex]
Visualization of M21 human melanoma xenografts by SPECT/CT [1]: clearly visualized | Uptake ratio Tumor/kidney ([2]; 0.5 h post-injection): 0.40 | Uptake ratio Tumor/kidney ([2]; 2 h post-injection): 0.71 | Tumor uptake blocked by co-injection of non-radioactive NDP-MSH ([2]; 2 h post-injection, 10 μg (6.07 nmol) NDP-MSH co-injected): 80% | Uptake ratio Tumor/kidney ([2]; 2 h post-injection, NDP blockade (co-injection of 10 μg NDP-MSH)): 0.17 | Uptake ratio Tumor/kidney ([2]; 4 h post-injection): 0.95 | Uptake ratio Tumor/kidney ([2]; 24 h post-injection): 1.13 | Intestines, percent injected dose ([2]; mouse, in vivo): 1.65±0.73 %ID | Urine, percent injected dose (urinary clearance) ([2]; mouse, in vivo): 92.23±1.52 %ID | Activity remained inside the cells (cellular efflux) (M21 human melanoma cells): 66% | Visualization of B16/F1 melanoma lesions by SPECT/CT (B16/F1 melanoma): clearly visualized
